Consider one protein from PMC3092763, “Urate Oxidase Purification by Salting-in Crystallization: Towards an Alternative to Chromatography” (PLoS ONE, 2011).

The series concerns the molecule itself. Put plainly: SEC; analytical SEC of the pools of the downstream process; Superdex 200 GL, 50 mM sodium phosphate buffer pH 8, UV detection at 226 and 280 nm; column calibrated with seven proteins of 13.7 to 669 kDa; oligomer size from the calibration (with IEF profile and activity test as support). (SEC sorts molecules by how far they enter the pores of the column.)

B1: recombinant urate oxidase from Aspergillus flavus (rasburicase) (enzyme, UniProt Q00511 1-302, looked up)
chain: MSAVKAARYGKDNVRVYKVHKDEKTGVQTVYEMTVCVLLEGEIETSYTKADNSVIVATDSIKNTIYITAKQNPVTPPELFGSILGTHFIEKYNHIHAAHVNIVCHRWTRMDIDGKPHPHSFIRDSEEKRNVQVDVVEGKGIDIKSSLSGLTVLKSTNSQFWGFLRDEYTTLKETWDRILSTDVDATWQWKNFSGLQEVRSHVPKFDATWATAREVTLKTFAEDNSASVQATMYKMAEQILARQQLIETVEYSLPNKHYFEIDLSWHKGLQNTGKNAEVFAPQSDPNGLIKCTVGRSSLKSKL
notes: urate oxidase (uricase, EC 1.7.3.3) from Aspergillus flavus, recombinant form (rasburicase); subunit of about 34 kDa, 135 kDa tetramer of identical subunits; Several isoforms are seen by IEF even in the purest pool; also called Fasturtec; Elitek; source: expressed in a genetically modified Saccharomyces cerevisiae strain; supplied by Sanofi-Aventis, sampled at different steps of the downstream …
Broadly, the stoichiometry N is the number of molecules, sites or subunits per partner or assembly. On to B1, for which the “stoichiometry N” value worked out at 4.
